The values below come from US20260167721A1 (ABLEXIS, published 2026).

The chains are these.
B1: CD3 × CD33-BspAb115 (bispecific antibody)
scFv-Fc: NFMLTQPHSVSESPGKTVTISCTRTSGSIASNYVQWYQQRPGSSPTTVIYEDNQRPSGVPDRFSGSIDSSSNSASLTISGLKTEDEAAYYCQSYDRSNRVFGCGTKLTVLGGGGSGGGGSGGGGSGGGGSQVQLQESGPGLVKPSETLSLTCTVSGGSISSYYWSWIRQPAGKCLEWIGRIYTSGSTKYNPSLKSRVTMSVDTSKNQFSLKLISVTAADTAVYFCARERIRDLYFDYWGQGTLVTVSSGGGGSDKTHTCPPCPAPEFEGGPSVFLFPPKPKDTLMISRTPEVTCVVVDVSHEDPEVKFNWYVDGVEVHNAKTKPREEQYNSTYRVVSVLTVLHQDWLNGKEYKCKVSNKALPASIEKTISKAKGQPREPQVYTLPPCREEMTKNQVSLWCLVKGFYPSDIAVEWESNGQPENNYKTTPPVLDSDGSFFLYSKLTVDKSRWQQGNVFSCSVMHEALHNHYTQKSLSLSPGK
heavy: EVQLVQSGAEVKKPGSSVKVSCKASGYTITDSNIHWVRQAPGQSLEWIGYIYPYNGGTDYNQKFKNRATLTVDNPTNTAYMELSSLRSEDTAFYYCVNGNPWLAYWGQGTLVTVSSASTKGPSVFPLAPSSKSTSGGTAALGCLVKDYFPEPVTVSWNSGALTSGVHTFPAVLQSSGLYSLSSVVTVPSSSLGTQTYICNVNHKPSNTKVDKRVEPKSCDKTHTCPPCPAPEFEGGPSVFLFPPKPKDTLMISRTPEVTCVVVDVSHEDPEVKFNWYVDGVEVHNAKTKPREEQYNSTYRVVSVLTVLHQDWLNGKEYKCKVSNKALPASIEKTISKAKGQPREPQVCTLPPSREEMTKNQVSLSCAVKGFYPSDIAVEWESNGQPENNYKTTPPVLDSDGSFFLVSKLTVDKSRWQQGNVFSCSVMHEALHNRFTQKSLSLSPGK
light: DIQLTQSPSTLSASVGDRVTITCRASESLDNYGIRFLTWFQQKPGKAPKLLMYAASNQGSGVPSRFSGSGSGTEFTLTISSLQPDDFATYYCQQTKEVPWSFGQGTKVEVKRTVAAPSVFIFPPSDEQLKSGTASVVCLLNNFYPREAKVQWKVDNALQSGNSQESVTEQDSKDSTYSLSSTLTLSKADYEKHKVYACEVTHQGLSSPVTKSFNRGEC
notes: KiH heterodimer
B2: CD3 × CD33-BspAb116 (bispecific antibody)
scFv-Fc: NFMLTQPHSVSESPGKTVTISCTRSSGSIASNYVQWYQQRPGSSPTTVIYEDNQRPSGVPDRFSGSIDSSSNSASLTISGLKTEDEAYYYCQSFDSSNRVFGCGTKLTVLGGGGSGGGGSGGGGSGGGGSQVQLQESGPGLVKPSQTLSLTCTVSGGSISSGGYYWSWIRQHPGKCLEWIGYIYYSGSTYYNPSLKSRVTISVDTSKDQFSLKLSSVTAADTAVYYCARERKTSLPFDIWGQGTMVTVSSGGGGSDKTHTCPPCPAPEFEGGPSVFLFPPKPKDTLMISRTPEVTCVVVDVSHEDPEVKFNWYVDGVEVHNAKTKPREEQYNSTYRVVSVLTVLHQDWLNGKEYKCKVSNKALPASIEKTISKAKGQPREPQVYTLPPCREEMTKNQVSLWCLVKGFYPSDIAVEWESNGQPENNYKTTPPVLDSDGSFFLYSKLTVDKSRWQQGNVFSCSVMHEALHNHYTQKSLSLSPGK
heavy: B1 heavy
light: B1 light
notes: KiH heterodimer
B3: CD3 × CD33-BspAb117 (bispecific antibody)
scFv-Fc: NFMLTQPHSVSESPGKTVTISCTRSSGSIASNYVQWYQQRPGSSPTSVIYEDNQRPSGVPDRFSGSIDSSSNSASLTISGLKTEDEADYYCQSYDRSNRVFGCGTKLTVLGGGGSGGGGSGGGGSGGGGSEVQLVESGGGLVKPGGSLRLSCAASGLTFSTYSMNWVRQAPGKCLEWVSSISSSGSYVYYADSVKGRFTMSRDNAKNSLYLQMNSLRAEDTAVYYCARERRELLFDYWGQGTLVTVSSGGGGSDKTHTCPPCPAPEFEGGPSVFLFPPKPKDTLMISRTPEVTCVVVDVSHEDPEVKFNWYVDGVEVHNAKTKPREEQYNSTYRVVSVLTVLHQDWLNGKEYKCKVSNKALPASIEKTISKAKGQPREPQVYTLPPCREEMTKNQVSLWCLVKGFYPSDIAVEWESNGQPENNYKTTPPVLDSDGSFFLYSKLTVDKSRWQQGNVFSCSVMHEALHNHYTQKSLSLSPGK
heavy: B1 heavy
light: B1 light
notes: KiH heterodimer
B4: CD3 × CD33-BspAb118 (bispecific antibody)
scFv-Fc: FMLTQPHSVSESPGKTVTISCTRSSGSIASNYVQWYQQRPGSSPTTVIYEDNQRPSGVPDRFSGSIDSSSNSASLTISGLQTEDEADYYCQSYDSSNRVFGCGTKLTVLGGGGSGGGGSGGGGSGGGGSEVQLVESGGGLVKPGGSLRLSCVASGFTFSRYSMNWVRQAPGKCLEWVSSISSSSRYTYYADSLKGRFIMSRDNAKNSLFLQMNSLRAEDTAVYYCARNLYNALDYWGQGTLVTVSSGGGGSDKTHTCPPCPAPEFEGGPSVFLFPPKPKDTLMISRTPEVTCVVVDVSHEDPEVKFNWYVDGVEVHNAKTKPREEQYNSTYRVVSVLTVLHQDWLNGKEYKCKVSNKALPASIEKTISKAKGQPREPQVYTLPPCREEMTKNQVSLWCLVKGFYPSDIAVEWESNGQPENNYKTTPPVLDSDGSFFLYSKLTVDKSRWQQGNVFSCSVMHEALHNHYTQKSLSLSPGK
heavy: B1 heavy
light: B1 light
notes: KiH heterodimer
B5: CD3 × CD33-BspAb120 (bispecific antibody)
chain 1: NFMLTQPHSVSESPGKTVAISCTRSSGSIASNYVQWYQQRPGSSPTAVIYEDNQRPSGVPDRFSGSIDSSSNSAFLTISGLKTEDEADYYCQSYDSSNRVFGCGTKLTVLGGGGSGGGGSGGGGSGGGGSEVQLVESGGGLVKPGGSLRLSCAASGFTFSSYSMNWVRQAPGKCLEWVSSISRSSGYIFYADSVKGRFTISRDNAKNSLYLQMNSLRAEDTAVYYCVRERVGAGFDYWGQGTLVTVSSDKTHTCPPCPAPEFEGGPSVFLFPPKPKDTLMISRTPEVTCVVVDVSHEDPEVKFNWYVDGVEVHNAKTKPREEQYNSTYRVVSVLTVLHQDWLNGKEYKCKVSNKALPASIEKTISKAKGQPREPQVYTLPPCREEMTKNQVSLWCLVKGFYPSDIAVEWESNGQPENNYKTTPPVLDSDGSFFLYSKLTVDKSRWQQGNVFSCSVMHEALHNHYTQKSLSLSPGK
chain 2: B1 heavy
chain 3: B1 light

For one assay, the target named is T1, human CD3 (TCR/CD3 complex on the cell surface) (human, UniProt P07766 23-207; P04234 22-171; P09693 23-182).
T1 construct: whole, on cells; Native CD3 on human Pan-T cells or Jurkat wild-type cells; also called CD3 on Pan-T cells; CD3 on Jurkat WT cells
T1 sequence (P07766 23-207, chain 1 of 3): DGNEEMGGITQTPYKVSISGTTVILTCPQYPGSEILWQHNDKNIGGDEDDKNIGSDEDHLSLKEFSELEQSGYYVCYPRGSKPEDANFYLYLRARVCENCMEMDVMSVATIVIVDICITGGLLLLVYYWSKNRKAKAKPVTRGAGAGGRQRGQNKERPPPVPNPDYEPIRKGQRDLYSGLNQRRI
T1 sequence (P04234 22-171, chain 2 of 3): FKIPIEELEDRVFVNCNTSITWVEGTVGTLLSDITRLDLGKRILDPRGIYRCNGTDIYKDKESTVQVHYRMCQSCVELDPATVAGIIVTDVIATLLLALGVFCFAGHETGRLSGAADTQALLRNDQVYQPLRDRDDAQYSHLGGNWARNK
T1 sequence (P09693 23-182, chain 3 of 3): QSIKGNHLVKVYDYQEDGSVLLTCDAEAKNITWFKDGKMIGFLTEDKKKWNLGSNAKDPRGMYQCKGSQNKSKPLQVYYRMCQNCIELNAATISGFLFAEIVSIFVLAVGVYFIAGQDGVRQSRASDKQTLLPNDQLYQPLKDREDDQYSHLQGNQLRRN
As to the kind of experiment: flow cytometry, Pan-T cells, 1 ug/mL. Background: A flow cytometer gives signals particle by particle.
With B1, the “% Positive” value stood at 63.4% and the gMFI is 8660 gMFI.
In the case of B2, the “% Positive” value is 31.6% and the gMFI was found to be 5260 gMFI.
Taken in the same sequence, the figures for B3 were 99.6% and 70300 gMFI.
With B4, the “% Positive” value is 99.3% and the gMFI turned out to be 331000 gMFI.
Taken in the same sequence, the figures for B5 were 95.2% and 27600 gMFI.

The next assay addresses T1, human CD3 (TCR/CD3 complex on the cell …). As to the kind of experiment: flow cytometry, Pan-T cells, 10 ug/mL.
On to B1, for which the “% Positive” value stood at 95.5% and the gMFI stood at 34200 gMFI.
In the same order, the values of B2 are 98.2% and 30000 gMFI.
Taken in the same sequence, the figures for B3 were 99.7% and 195000 gMFI.
In the same order, the values of B4 are 99.8% and 370000 gMFI.
Regarding B5, the “% Positive” value came out at 99.3% and the gMFI was 87700 gMFI.

A further assay has the same target. Briefly: flow cytometry, Jurkat WT cells, 1 ug/mL.
In turn, B1 returned a gMFI of 7380 gMFI.
The same measure, in the same setting: the value for B2 was 3320 gMFI.
Same read-out and setting: the value for B3 was 29700 gMFI.
On the same count and under the same terms, as for B4, the figure is 56300 gMFI; as for B5, 8730 gMFI.

The target is the same in a further assay. Briefly: flow cytometry, Jurkat WT cells, 10 ug/mL.
B1 yielded a gMFI of 12600 gMFI.
B2 came in with a gMFI of 9600 gMFI.
On the same count and under the same terms, the value for B3 was 38600 gMFI; that for B4 was 65000 gMFI; that for B5 was 14600 gMFI.

Another assay has the same target. Briefly: flow cytometry, Jurkat WT gMFI over Jurkat KO gMFI, 1 ug/mL.
Regarding B1, the “Jurkat WT/KO (Fold)” value was 3.6 fold.
Same read-out and setting: the value for B2 was 1.6 fold; that for B3 was 8.7 fold; that for B4 was 12.3 fold.
On the same count and under the same terms, as for B5, the figure is 3.7 fold.

The target is the same in a further assay. As to the kind of experiment: flow cytometry, Jurkat WT gMFI over Jurkat KO gMFI, 10 ug/mL.
Turning to B1, the “Jurkat WT/KO (Fold)” value worked out at 5.7 fold.
On to B2, for which the “Jurkat WT/KO (Fold)” value stood at 4.1 fold.
For B3, the “Jurkat WT/KO (Fold)” value came to 10.6 fold.
The same measure, in the same setting: as for B4, the figure is 13.8 fold; as for B5, 6.1 fold.
